Experimental data from IntAct's records for PubMed 29892012.

B1: Transcription factor RFX3 (Homo sapiens), P48380 (parent)
chain: MQTSETGSDTGSTVTLQTSVASQAAVPTQVVQQVPVQQQVQQVQTVQQVQHVYPAQVQYVEGSDTVYTNGAIRTTTYPYTETQMYSQNTGGNYFDTQGSSAQVTTVVSSHSMVGTGGIQMGVTGGQLISSSGGTYLIGNSMENSGHSVTHTTRASPATIEMAIETLQKSDGLSTHRSSLLNSHLQWLLDNYETAEGVSLPRSTLYNHYLRHCQEHKLDPVNAASFGKLIRSIFMGLRTRRLGTRGNSKYHYYGIRVKPDSPLNRLQEDMQYMAMRQQPMQQKQRYKPMQKVDGVADGFTGSGQQTGTSVEQTVIAQSQHHQQFLDASRALPEFGEVEISSLPDGTTFEDIKSLQSLYREHCEAILDVVVNLQFSLIEKLWQTFWRYSPSTPTDGTTITESSNLSEIESRLPKAKLITLCKHESILKWMCNCDHGMYQALVEILIPDVLRPIPSALTQAIRNFAKSLEGWLSNAMNNIPQRMIQTKVAAVSAFAQTLRRYTSLNHLAQAARAVLQNTSQINQMLSDLNRVDFANVQEQASWVCQCDDNMVQRLETDFKMTLQQQSTLEQWAAWLDNVMMQALKPYEGRPSFPKAARQFLLKWSFYSSMVIRDLTLRSAASFGSFHLIRLLYDEYMFYLVEHRVAQATGETPIAVMGEFGDLNAVSPGNLDKDEGSEVESEMDEELDDSSEPQAKREKTELSQAFPVGCMQPVLETGVQPSLLNPIHSEHIVTSTQTIRQCSATGNTYTAV
partner: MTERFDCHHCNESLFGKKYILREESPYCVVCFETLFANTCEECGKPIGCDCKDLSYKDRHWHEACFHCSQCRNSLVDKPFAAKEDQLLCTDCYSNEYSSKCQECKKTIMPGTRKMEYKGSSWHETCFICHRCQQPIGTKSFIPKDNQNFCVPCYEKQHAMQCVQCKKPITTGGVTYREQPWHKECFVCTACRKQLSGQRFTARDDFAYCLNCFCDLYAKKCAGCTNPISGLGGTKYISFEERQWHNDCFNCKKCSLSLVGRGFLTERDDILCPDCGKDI
B2: Coiled-coil alpha-helical rod protein 1 (Homo sapiens), Q8TD31 (parent)
chain: MFPPSGSTGLIPPSHFQARPLSTLPRMAPTWLSDIPLVQPPGHQDVSERRLDTQRPQVTMWERDVSSDRQEPGRRGRSWGLEGSQALSQQAEVIVRQLQELRRLEEEVRLLRETSLQQKMRLEAQAMELEALARAEKAGRAEAEGLRAALAGAEVVRKNLEEGSQRELEEVQRLHQEQLSSLTQAHEEALSSLTSKAEGLEKSLSSLETRRAGEAKELAEAQREAELLRKQLSKTQEDLEAQVTLVENLRKYVGEQVPSEVHSQTWELERQKLLETMQHLQEDRDSLHATAELLQVRVQSLTHILALQEEELTRKVQPSDSLEPEFTRKCQSLLNRWREKVFALMVQLKAQELEHSDSVKQLKGQVASLQEKVTSQSQEQAILQRSLQDKAAEVEVERMGAKGLQLELSRAQEARRRWQQQTASAEEQLRLVVNAVSSSQIWLETTMAKVEGAAAQLPSLNNRLSYAVRKVHTIRGLIARKLALAQLRQESCPLPPPVTDVSLELQQLREERNRLDAELQLSARLIQQEVGRAREQGEAERQQLSKVAQQLEQELQQTQESLASLGLQLEVARQGQQESTEEAASLRQELTQQQELYGQALQEKVAEVETRLREQLSDTERRLNEARREHAKAVVSLRQIQRRAAQEKERSQELRRLQEEARKEEGQRLARRLQELERDKNLMLATLQQEGLLSRYKQQRLLTVLPSLLDKKKSVVSSPRPPECSASAPVAAAVPTRESIKGSLSVLLDDLQDLSEAISKEEAVCQGDNLDRCSSSNPQMSS
partner: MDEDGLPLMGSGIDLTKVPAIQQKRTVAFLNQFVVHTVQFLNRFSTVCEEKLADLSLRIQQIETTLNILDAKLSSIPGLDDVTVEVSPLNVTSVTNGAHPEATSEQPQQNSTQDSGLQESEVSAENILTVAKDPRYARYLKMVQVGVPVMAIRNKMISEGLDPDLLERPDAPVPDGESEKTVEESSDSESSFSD
B3: TBC1 domain family member 22B (Homo sapiens), Q9NU19 (parent)
chain: MAAENSKQFWKRSAKLPGSIQPVYGAQHPPLDPRLTKNFIKERSKVNTVPLKNKKASSFHEFARNTSDAWDIGDDEEEDFSSPSFQTLNSKVALATAAQVLENHSKLRVKPERSQSTTSDVPANYKVIKSSSDAQLSRNSSDTCLRNPLHKQQSLPLRPIIPLVARISDQNASGAPPMTVREKTRLEKFRQLLSSQNTDLDELRKCSWPGVPREVRPITWRLLSGYLPANTERRKLTLQRKREEYFGFIEQYYDSRNEEHHQDTYRQIHIDIPRTNPLIPLFQQPLVQEIFERILFIWAIRHPASGYVQGINDLVTPFFVVFLSEYVEEDVENFDVTNLSQDMLRSIEADSFWCMSKLLDGIQDNYTFAQPGIQKKVKALEELVSRIDEQVHNHFRRYEVEYLQFAFRWMNNLLMRELPLRCTIRLWDTYQSEPEGFSHFHLYVCAAFLIKWRKEILDEEDFQGLLMLLQNLPTIHWGNEEIGLLLAEAYRLKYMFADAPNHYRR
partner: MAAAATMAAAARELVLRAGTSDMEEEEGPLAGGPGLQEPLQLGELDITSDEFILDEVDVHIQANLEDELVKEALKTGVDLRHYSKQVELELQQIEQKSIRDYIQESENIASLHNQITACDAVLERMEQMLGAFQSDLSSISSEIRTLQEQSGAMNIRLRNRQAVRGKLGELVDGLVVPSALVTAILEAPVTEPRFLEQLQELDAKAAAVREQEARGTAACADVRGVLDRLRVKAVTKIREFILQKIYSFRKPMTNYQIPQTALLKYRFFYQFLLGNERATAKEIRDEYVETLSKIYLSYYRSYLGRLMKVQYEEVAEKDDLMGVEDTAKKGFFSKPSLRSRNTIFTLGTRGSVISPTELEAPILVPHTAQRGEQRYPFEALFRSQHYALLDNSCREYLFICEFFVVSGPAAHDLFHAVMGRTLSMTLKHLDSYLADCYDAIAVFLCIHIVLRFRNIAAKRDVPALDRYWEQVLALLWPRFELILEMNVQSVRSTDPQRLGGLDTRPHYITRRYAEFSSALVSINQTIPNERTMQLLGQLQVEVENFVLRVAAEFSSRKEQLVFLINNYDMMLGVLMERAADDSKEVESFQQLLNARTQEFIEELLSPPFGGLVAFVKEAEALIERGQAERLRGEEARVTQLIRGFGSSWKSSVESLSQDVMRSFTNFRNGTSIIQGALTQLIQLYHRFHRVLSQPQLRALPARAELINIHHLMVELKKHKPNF
B4: Protein Largen (Homo sapiens), Q569H4 (parent)
chain: MSAKSKGNPSSSCPAEGPPAASKTKVKEQIKIIVEDLELVLGDLKDVAKELKEVVDQIDTLTSDLQLEDEMTDSSKTDTLNSSSSGTTASSLEKIKVQANAPLIKPPAHPSAILTVLRKPNPPPPPPRLTPVKCEDPKRVVPTANPVKTNGTLLRNGGLPGGPNKIPNGDICCIPNSNLDKAPVQLLMHRPEKDRCPQAGPRERVRFNEKVQYHGYCPDCDTRYNIKNREVHLHSEPVHPPGKIPHQGPPLPPTPHLPPFPLENGGMGISHSNSFPPIRPATVPPPTAPKPQKTILRKSTTTTV

Variants of: B1
Conditions: with fhl2_human FHL2, Q14192

| Variant | effect of a mutation on the interaction |
| --- | --- |
| S387C | with no effect |

Variants of: B1
Conditions: with fhl2_human FHL2, Q14192
Remark: another data set of the same source

| Variant | effect of a mutation on the interaction |
| --- | --- |
| Y135D | with no effect |

Variants of: B2
Conditions: with wasc3_human WASHC3, Q9Y3C0

| Variant | effect of a mutation on the interaction |
| --- | --- |
| W337R | disrupting interaction strength |

Variants of: B3
Conditions: with vps52_human VPS52, Q8N1B4

| Variant | effect of a mutation on the interaction |
| --- | --- |
| A349T | disrupting interaction strength |

Variants of: B4
Conditions: with abi2_human ABI2, Q9NYB9
abi2_human ABI2, Q9NYB9, sequence (Q9NYB9 whole entry): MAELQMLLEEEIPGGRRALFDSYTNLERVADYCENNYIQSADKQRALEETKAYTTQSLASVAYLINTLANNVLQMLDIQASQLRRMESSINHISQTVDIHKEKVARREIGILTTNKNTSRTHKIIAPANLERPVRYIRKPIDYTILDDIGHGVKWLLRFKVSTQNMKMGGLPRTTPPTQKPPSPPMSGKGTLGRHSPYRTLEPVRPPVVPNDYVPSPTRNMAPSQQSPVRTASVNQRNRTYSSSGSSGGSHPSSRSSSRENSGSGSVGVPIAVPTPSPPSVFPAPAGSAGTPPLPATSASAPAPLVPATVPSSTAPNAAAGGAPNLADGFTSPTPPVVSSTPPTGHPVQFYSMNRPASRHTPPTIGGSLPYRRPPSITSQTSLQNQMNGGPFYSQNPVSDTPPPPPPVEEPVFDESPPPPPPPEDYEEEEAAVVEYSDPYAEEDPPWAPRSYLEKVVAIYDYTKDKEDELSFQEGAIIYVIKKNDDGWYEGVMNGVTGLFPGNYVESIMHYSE

| Variant | effect of a mutation on the interaction |
| --- | --- |
| Q98P | with no effect |
